This data set deals with Escherichia coli TOP10. In words: shrunken log2 fold change of peptide-encoding DNA abundance (4.5 h post-induction vs induction); higher = less antimicrobial activity (less host growth inhibition). Conditions: time post-induction: 4.5 h; library: site-saturation at positions 5, 18, 19, 20.
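Also: peptides expressed intracellularly from a pBAD plasmid library in pooled LB shake-flask culture, induced with 0.3% L-arabinose, DNA abundance read by NGS, three biological replicates, DESeq2 with apeglm shrinkage.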

With RRIRFRPPRLPRPRPRPSCMPRP, the “shrunken log2 fold change” value is -0.831. For RRIRWRPPRLPRPRPRPFCVPRP the value was -0.0188; for RRIRHRPPRLPRPRPRPCKMPRP, -0.134; for RRIRDRPPRLPRPRPRPPAFPRP, 0.192. To RRIRDRPPRLPRPRPRPFNRPRP belongs 0.00902; to RRIRERPPRLPRPRPRPETVPRP, 0.0162; to RRIRDRPPRLPRPRPRPDIPPRP, 0.213.

Regarding RRIRKRPPRLPRPRPRPEKMPRP, the “shrunken log2 fold change” value was -0.0217.

For the sequence RRIRDRPPRLPRPRPRPAACPRP, the “shrunken log2 fold change” value was found to be 0.598.

As to RRIRARPPRLPRPRPRPRPGPRP, the “shrunken log2 fold change” value is 0.814. For RRIRIRPPRLPRPRPRPTEQPRP the value was -0.348.

On to RRIRVRPPRLPRPRPRPLIFPRP, for which the “shrunken log2 fold change” value is -0.317. To RRIRFRPPRLPRPRPRPFLCPRP belongs -0.313. For RRIRNRPPRLPRPRPRPPYSPRP the value was -0.604; for RRIRTRPPRLPRPRPRPKLAPRP, 0.163; for RRIRHRPPRLPRPRPRPPVTPRP, -0.0642. For RRIRNRPPRLPRPRPRPTMQPRP the value was 0.0135; for RRIRFRPPRLPRPRPRPCMPPRP, -0.35; for RRIRYRPPRLPRPRPRPKNLPRP, -0.36.

Regarding RRIRQRPPRLPRPRPRPVYMPRP, the “shrunken log2 fold change” value was -0.269.

Regarding RRIRTRPPRLPRPRPRPIVVPRP, the “shrunken log2 fold change” value is -9.82e-05. To RRIRIRPPRLPRPRPRPPQIPRP belongs -0.157. For RRIRPRPPRLPRPRPRPLTGPRP the value was 0.019; for RRIRDRPPRLPRPRPRPTMAPRP, 0.695; for RRIRTRPPRLPRPRPRPYKMPRP, -0.0239.

On to RRIRPRPPRLPRPRPRPSSKPRP, for which the “shrunken log2 fold change” value is -0.217. Regarding RRIRKRPPRLPRPRPRPDFKPRP, the “shrunken log2 fold change” value was -0.0323. With RRIRIRPPRLPRPRPRPKNFPRP, the “shrunken log2 fold change” value was -0.0927. As to RRIRTRPPRLPRPRPRPFMAPRP, the “shrunken log2 fold change” value is -0.0759.

As for RRIRKRPPRLPRPRPRPQNTPRP, the “shrunken log2 fold change” value was determined as 0.00556.

Turning to RRIRDRPPRLPRPRPRPLNHPRP, the “shrunken log2 fold change” value was -0.154. To RRIRNRPPRLPRPRPRPMCHPRP belongs 0.0429; to RRIRQRPPRLPRPRPRPSANPRP, 0.0611. For RRIRNRPPRLPRPRPRPGEMPRP the value was 0.336; for RRIRFRPPRLPRPRPRPMHGPRP, -0.0727; for RRIRPRPPRLPRPRPRPGQSPRP, 0.421. To RRIRHRPPRLPRPRPRPMNYPRP belongs -0.316; to RRIRQRPPRLPRPRPRPNQKPRP, -0.0966.

As to RRIRVRPPRLPRPRPRPTPCPRP, the “shrunken log2 fold change” value is -0.147. To RRIRHRPPRLPRPRPRPQAPPRP belongs -0.0401; to RRIRKRPPRLPRPRPRPTKDPRP, 0.522; to RRIRPRPPRLPRPRPRPRLHPRP, 0.624.

Turning to RRIRSRPPRLPRPRPRPKYIPRP, the “shrunken log2 fold change” value is -0.383. To RRIRSRPPRLPRPRPRPHRAPRP belongs 0.0729. Turning to RRIRQRPPRLPRPRPRPKICPRP, the “shrunken log2 fold change” value is -0.101. To RRIRVRPPRLPRPRPRPQFVPRP belongs -0.122. For the sequence RRIRQRPPRLPRPRPRPDNMPRP, the “shrunken log2 fold change” value is -0.163. Consider RRIRERPPRLPRPRPRPKLHPRP, for which the “shrunken log2 fold change” value is -0.0464. As to RRIRLRPPRLPRPRPRPCMVPRP, the “shrunken log2 fold change” value is -0.365. For RRIRMRPPRLPRPRPRPDRNPRP the value was 1.4.

The record behind these values is the supplement of paper PMC9112550, “Optimization of the antimicrobial peptide Bac7 by deep mutational scanning” (BMC Biology, 2022).
